Reference: patent publication US20230075095A1 (University of Washington, published 2023)

Biological target: the molecule itself
Assay: negative-stain TEM, homomeric self-assembly
Description: FIG. 2(a-b). Transmission electron micrographs of degreased I3-01 constructs. […] Images taken at 22,000× magnification.
Samples were prepared for negative stain EM by diluting to 0.05-0.075 mg/mL using a Tris-based buffer, and 6.0 μL was incubated on a glow-discharged, copper, carbon-coated grid for 1 min before quickly immersing the grid in a 60 μL drop of water. The water was blotted off within seconds by Whatman™ No. 1 filter paper, and the grid was immediately dipped into a 6.0 μL drop of stain (2% w/v uranyl formate). The stain was immediately blotted away and within seconds the grid was dipped into another 6.0 μL drop of stain, which was left on the grid for 30 seconds. At the end of this time, the stain was blotted dry and allowed to air dry for 5 minutes prior to imaging. Images were recorded on a FEI Morgagni 268 transmission electron microscope equipped with a Gatan US4000 CCD camera, using Leginon™ software for data collection at a nominal magnification of 22,000× at a defocus range comprised between −1 um and −4 um.

Protein | binding result
I3-01 H35D (designed binder, One-component (homomeric) icosahedral nanoparticle secreted from HEK293F cells; also called H35D variant; degreased I3-01 construct) YKDEKMEELFKKHKIVAVLRANSVEEAKKKALAVFLGGVDLIEITFTVPDADTVIKELSFLKEMGAIIGAGTVTSVEQCRKAVESGAEFIVSPHLDEEISQFCKEKGVFYMPGVMTPTELVKAMKLGHTILKLFPGEVVGPQFVKAMKGPFPNVKFVPTGGVNLDNVCEWFKAGVLAVGVGSALVKGTPVEVAEKAKAFVEKIRGCTEQKLISEEDLHHHHHH | binds
I3-01 'secretion mutations' (H35D/L171Q/S177E/V180N) (designed binder, One-component (homomeric) icosahedral nanoparticle secreted from HEK293F cells; also called H35D/L171Q/S177E/V180N quadruple mutant) YKDEKMEELFKKHKIVAVLRANSVEEAKKKALAVFLGGVDLIEITFTVPDADTVIKELSFLKEMGAIIGAGTVTSVEQCRKAVESGAEFIVSPHLDEEISQFCKEKGVFYMPGVMTPTELVKAMKLGHTILKLFPGEVVGPQFVKAMKGPFPNVKFVPTGGVNLDNVCEWFKAGVQAVGVGEALNKGTPVEVAEKAKAFVEKIRGCTEQKLISEEDLHHHHHH | binds
